# Laboratory results published in the supplement of paper PMC10567573.
# B1: NCF4 (parent)
# chain: FGPDSKSSALACTLPTLPAKVYVG
# B2: PPEF2 (parent)
# chain: DHSGFISLDEFRQTWKLFSSHMNI
# Variants of: B1
# Assay: protein stability index of a GFP-peptide fusion (GPS, HEK-293T) (PSI 1-6); higher = more stable
# Details: c terminus: a fixed tail appended
# 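Note: lentivirally expressed fusions sorted by FACS into six bins by GFP to DsRed ratio, PSI derived from sequencing read proportions per bin multiplied by bin number.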
row,Variant,protein stability index
1,FGPDSKSSALACTLPTLPHKVYVG [A19H],2.17
2,FGPDSKSSALACTLPTLPCKVYVG [A19C],1.74
3,FGPDSKSSALACTLPTLPTKVYVG [A19T],2.05
4,FGPDSKSSALACTLPTLPDKVYVG [A19D],2.6
5,FGPDSKSSALACTLPTLPKKVYVG [A19K],2.38
6,FGPDSKSSALACTLPTLPGKVYVG [A19G],2.58
7,FGPDSKSSALACTLPTLPVKVYVG [A19V],2.76
8,FGPDSKSSALACTLPTLPYKVYVG [A19Y],1.95
9,FGPDSKSSALACTLPTLPSKVYVG [A19S],2.14
10,FGPDSKSSALACTLPTLPPKVYVG [A19P],2.46
11,FGPDSKSSALACTLPTLPMKVYVG [A19M],1.55
12,FGPDSKSSALACTLPTLPLKVYVG [A19L],1.41
13,FGPDSKSSALACTLPTLPQKVYVG [A19Q],1.91
14,FGPDSKSSALACTLPTLPIKVYVG [A19I],1.87
15,FGPDSKSSALACTLPTLPWKVYVG [A19W],1.26
16,FGPDSKSSALACTLPTLPNKVYVG [A19N],2.31
17,FGPDSKSSALACTLPTLPRKVYVG [A19R],2.47
18,FGPDSKSSALACTLPTLPFKVYVG [A19F],2.35
19,FGPDSKSSALACTLPTLPEKVYVG [A19E],2.56
20,FGPDSKSSALACTLPTLSAKVYVG [P18S],1.65
21,FGPDSKSSALACTLPTLGAKVYVG [P18G],2.12
22,FGPDSKSSALACTLPTLYAKVYVG [P18Y],2.42
23,FGPDSKSSALACTLPTLHAKVYVG [P18H],2.26
24,FGPDSKSSALACTLPTLTAKVYVG [P18T],2.03
25,FGPDSKSSALACTLPTLLAKVYVG [P18L],1.65

row,Variant,protein stability index
1,FGPDSKSSALACTLPTLNAKVYVG [P18N],2.24
2,FGPDSKSSALACTLPTLEAKVYVG [P18E],2.23
3,FGPDSKSSALACTLPTLMAKVYVG [P18M],1.75
4,FGPDSKSSALACTLPTLIAKVYVG [P18I],3.81
5,FGPDSKSSALACTLPTLVAKVYVG [P18V],1.55
6,FGPDSKSSALACTLPTLFAKVYVG [P18F],2.02
7,FGPDSKSSALACTLPTLRAKVYVG [P18R],1.61
8,FGPDSKSSALACTLPTLKAKVYVG [P18K],2.15
9,FGPDSKSSALACTLPTLWAKVYVG [P18W],2.77
10,FGPDSKSSALACTLPTLQAKVYVG [P18Q],2.02
11,FGPDSKSSALACTLPTLCAKVYVG [P18C],1.52
12,FGPDSKSSALACTLPTLAAKVYVG [P18A],2.98
13,FGPDSKSSALACTLPTLDAKVYVG [P18D],2.71
14,FGPDSKSSALACTLPTLPAKVWVG [Y22W],1.67
15,FGPDSKSSALACTLPTLPAKVLVG [Y22L],2.12
16,FGPDSKSSALACTLPTLPAKVCVG [Y22C],2.63
17,FGPDSKSSALACTLPTLPAKVGVG [Y22G],3.11
18,FGPDSKSSALACTLPTLPAKVTVG [Y22T],2.93
19,FGPDSKSSALACTLPTLPAKVFVG [Y22F],2.67
20,FGPDSKSSALACTLPTLPAKVAVG [Y22A],2.71
21,FGPDSKSSALACTLPTLPAKVEVG [Y22E],2.85
22,FGPDSKSSALACTLPTLPAKVSVG [Y22S],3.4
23,FGPDSKSSALACTLPTLPAKVRVG [Y22R],3.24
24,FGPDSKSSALACTLPTLPAKVKVG [Y22K],2.95
25,FGPDSKSSALACTLPTLPAKVDVG [Y22D],2.83

row,Variant,protein stability index
1,FGPDSKSSALACTLPTLPAKVHVG [Y22H],2.87
2,FGPDSKSSALACTLPTLPAKVIVG [Y22I],2.36
3,FGPDSKSSALACTLPTLPAKVMVG [Y22M],2.7
4,FGPDSKSSALACTLPTLPAKVQVG [Y22Q],3.12
5,FGPDSKSSALACTLPTLPAKVPVG [Y22P],2.96
6,FGPDSKSSALACTLPTLPAKVNVG [Y22N],2.94
7,FGPDSKSSALACTLPTLPAKVVVG [Y22V],2.37
8,FGPDSKSSALACTLPTLPAYVYVG [K20Y],2.58
9,FGPDSKSSALACTLPTLPAQVYVG [K20Q],2.08
10,FGPDSKSSALACTLPTLPADVYVG [K20D],2.64
11,FGPDSKSSALACTLPTLPATVYVG [K20T],1.98
12,FGPDSKSSALACTLPTLPAWVYVG [K20W],2.15
13,FGPDSKSSALACTLPTLPAIVYVG [K20I],2.76
14,FGPDSKSSALACTLPTLPAGVYVG [K20G],2.38
15,FGPDSKSSALACTLPTLPAPVYVG [K20P],2.35
16,FGPDSKSSALACTLPTLPAEVYVG [K20E],2.13
17,FGPDSKSSALACTLPTLPAAVYVG [K20A],2.01
18,FGPDSKSSALACTLPTLPAMVYVG [K20M],1.64
19,FGPDSKSSALACTLPTLPARVYVG [K20R],2
20,FGPDSKSSALACTLPTLPANVYVG [K20N],2.49
21,FGPDSKSSALACTLPTLPAHVYVG [K20H],2.19
22,FGPDSKSSALACTLPTLPAFVYVG [K20F],2.48
23,FGPDSKSSALACTLPTLPACVYVG [K20C],2.48
24,FGPDSKSSALACTLPTLPASVYVG [K20S],2.31
25,FGPDSKSSALACTLPTLPAVVYVG [K20V],1.81

# Variants of: B2
# Assay: as above
# Details: c terminus: a fixed tail appended
row,Variant,protein stability index
1,AHSGFISLDEFRQTWKLFSSHMNI [D1A],1.51
2,MHSGFISLDEFRQTWKLFSSHMNI [D1M],1.94
3,LHSGFISLDEFRQTWKLFSSHMNI [D1L],3.93
4,SHSGFISLDEFRQTWKLFSSHMNI [D1S],4.12
5,HHSGFISLDEFRQTWKLFSSHMNI [D1H],1.38
6,KHSGFISLDEFRQTWKLFSSHMNI [D1K],2.64
7,QHSGFISLDEFRQTWKLFSSHMNI [D1Q],2.4
8,NHSGFISLDEFRQTWKLFSSHMNI [D1N],3.49
9,CHSGFISLDEFRQTWKLFSSHMNI [D1C],2.13
10,THSGFISLDEFRQTWKLFSSHMNI [D1T],2.84
11,VHSGFISLDEFRQTWKLFSSHMNI [D1V],2.56
12,FHSGFISLDEFRQTWKLFSSHMNI [D1F],2.27
13,PHSGFISLDEFRQTWKLFSSHMNI [D1P],2.12
14,YHSGFISLDEFRQTWKLFSSHMNI [D1Y],2.58
15,WHSGFISLDEFRQTWKLFSSHMNI [D1W],2.08
16,IHSGFISLDEFRQTWKLFSSHMNI [D1I],3.63
17,GHSGFISLDEFRQTWKLFSSHMNI [D1G],1.47
18,EHSGFISLDEFRQTWKLFSSHMNI [D1E],1.4
19,RHSGFISLDEFRQTWKLFSSHMNI [D1R],1.95
